Legend:
protein S (wild type) = biological target: T1, protein S (wild type) (UniProt P07225)
T1 sequence (chain, gamma-carboxyglutamate at 36 (printed as Gla36)): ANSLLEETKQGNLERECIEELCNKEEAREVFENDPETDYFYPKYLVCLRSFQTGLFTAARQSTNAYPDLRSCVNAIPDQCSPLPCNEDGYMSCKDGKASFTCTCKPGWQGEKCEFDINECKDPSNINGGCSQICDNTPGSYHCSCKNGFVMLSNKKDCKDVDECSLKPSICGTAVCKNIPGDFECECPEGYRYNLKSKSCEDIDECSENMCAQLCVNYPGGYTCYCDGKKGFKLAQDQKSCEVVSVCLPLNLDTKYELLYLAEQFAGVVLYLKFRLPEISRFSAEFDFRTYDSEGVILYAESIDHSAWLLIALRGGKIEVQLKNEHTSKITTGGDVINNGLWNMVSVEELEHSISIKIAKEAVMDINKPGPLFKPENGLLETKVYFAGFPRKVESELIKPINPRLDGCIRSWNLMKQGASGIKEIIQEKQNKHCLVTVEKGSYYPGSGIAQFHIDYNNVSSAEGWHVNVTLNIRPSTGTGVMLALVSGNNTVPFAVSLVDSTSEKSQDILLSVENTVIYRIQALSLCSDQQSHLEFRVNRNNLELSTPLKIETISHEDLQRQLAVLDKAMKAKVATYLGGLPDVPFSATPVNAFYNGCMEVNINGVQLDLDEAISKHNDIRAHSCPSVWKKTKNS

[1] = biological target: T2, activated factor V (FVa), wild type (UniProt P12259 29-737; P12259 1574-2224); experiment: flow cytometry on phospholipid-coated magnetic beads; as a2, with 200 nmol/L β-chain-containing C4BP pre-incubated with 100 nmol/L protein S and 25 nmol/L FVa for 10 min before 50 nmol/L APC-Fluor; details: both partners purified
T2 construct: FVa heavy chain (A1-A2), cut from full-length recombinant FV by thrombin; FVa light chain (A3-C1-C2), cut from full-length recombinant FV by thrombin with release of the B domain; FV cDNA in vector pED from Dr Rodney Camire; also called WT FVa; factor Va
T2 sequence (looked up) 1: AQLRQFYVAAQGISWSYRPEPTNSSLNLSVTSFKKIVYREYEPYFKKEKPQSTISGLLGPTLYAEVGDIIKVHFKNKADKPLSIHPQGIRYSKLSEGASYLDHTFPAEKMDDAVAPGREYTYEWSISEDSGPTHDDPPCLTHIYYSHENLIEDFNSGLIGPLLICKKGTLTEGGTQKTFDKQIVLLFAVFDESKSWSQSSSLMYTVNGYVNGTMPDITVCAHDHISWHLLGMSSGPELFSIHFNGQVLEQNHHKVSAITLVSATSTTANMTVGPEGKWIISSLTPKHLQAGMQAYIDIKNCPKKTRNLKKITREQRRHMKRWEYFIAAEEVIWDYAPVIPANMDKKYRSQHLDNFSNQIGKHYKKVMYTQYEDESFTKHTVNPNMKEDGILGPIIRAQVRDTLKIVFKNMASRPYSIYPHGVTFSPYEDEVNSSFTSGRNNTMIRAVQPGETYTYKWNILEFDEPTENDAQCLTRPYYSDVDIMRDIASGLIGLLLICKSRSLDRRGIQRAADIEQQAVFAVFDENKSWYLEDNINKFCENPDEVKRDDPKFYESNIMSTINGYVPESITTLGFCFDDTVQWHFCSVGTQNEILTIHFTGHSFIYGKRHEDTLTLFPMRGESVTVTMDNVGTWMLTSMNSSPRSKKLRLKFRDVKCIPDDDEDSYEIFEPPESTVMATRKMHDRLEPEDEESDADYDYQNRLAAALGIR
T2 sequence (looked up) 2: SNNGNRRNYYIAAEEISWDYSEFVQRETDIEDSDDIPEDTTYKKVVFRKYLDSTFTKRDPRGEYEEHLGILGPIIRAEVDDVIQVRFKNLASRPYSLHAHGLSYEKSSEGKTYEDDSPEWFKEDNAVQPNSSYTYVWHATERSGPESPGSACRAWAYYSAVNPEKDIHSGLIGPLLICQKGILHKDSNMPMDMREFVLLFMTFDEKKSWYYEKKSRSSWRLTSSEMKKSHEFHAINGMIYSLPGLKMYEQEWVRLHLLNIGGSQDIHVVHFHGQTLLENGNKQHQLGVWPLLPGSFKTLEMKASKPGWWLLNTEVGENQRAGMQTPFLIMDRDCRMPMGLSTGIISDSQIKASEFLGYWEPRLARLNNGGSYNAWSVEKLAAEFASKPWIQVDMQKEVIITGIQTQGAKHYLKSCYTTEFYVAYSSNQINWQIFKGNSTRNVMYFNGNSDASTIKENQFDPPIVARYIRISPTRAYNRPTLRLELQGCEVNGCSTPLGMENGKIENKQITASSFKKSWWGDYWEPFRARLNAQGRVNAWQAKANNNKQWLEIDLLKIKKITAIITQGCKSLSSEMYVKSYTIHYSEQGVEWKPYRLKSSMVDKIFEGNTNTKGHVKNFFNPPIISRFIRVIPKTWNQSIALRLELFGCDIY

[2] = biological target: T3, β-chain-containing C4b-binding protein (C4BP), protein S-free (human, UniProt P04003 49-597; P20851 18-252); experiment: as above; details: both partners purified
T3 construct: source: purified from pooled fresh frozen citrated human plasma
T3 sequence (looked up) 1: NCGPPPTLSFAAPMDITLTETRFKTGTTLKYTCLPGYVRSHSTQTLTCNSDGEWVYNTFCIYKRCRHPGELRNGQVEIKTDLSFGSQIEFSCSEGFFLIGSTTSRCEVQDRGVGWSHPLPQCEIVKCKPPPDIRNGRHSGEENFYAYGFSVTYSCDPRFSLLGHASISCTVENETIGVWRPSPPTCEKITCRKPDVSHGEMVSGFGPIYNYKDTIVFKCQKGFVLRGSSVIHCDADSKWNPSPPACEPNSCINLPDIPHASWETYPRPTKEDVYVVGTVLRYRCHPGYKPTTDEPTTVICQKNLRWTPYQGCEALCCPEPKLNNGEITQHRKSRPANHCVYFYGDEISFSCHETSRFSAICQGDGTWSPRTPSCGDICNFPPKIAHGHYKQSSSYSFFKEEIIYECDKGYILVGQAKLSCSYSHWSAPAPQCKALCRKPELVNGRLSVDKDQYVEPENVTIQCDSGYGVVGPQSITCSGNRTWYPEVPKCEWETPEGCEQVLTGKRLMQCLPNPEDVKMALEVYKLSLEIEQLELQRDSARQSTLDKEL
T3 sequence (looked up) 2: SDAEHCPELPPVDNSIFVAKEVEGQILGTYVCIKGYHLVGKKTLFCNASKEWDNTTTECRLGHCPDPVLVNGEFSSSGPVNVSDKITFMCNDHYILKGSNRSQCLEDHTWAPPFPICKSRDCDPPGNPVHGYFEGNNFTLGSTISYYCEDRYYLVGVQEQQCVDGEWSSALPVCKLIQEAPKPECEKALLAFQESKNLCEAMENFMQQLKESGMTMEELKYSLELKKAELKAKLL

For “activated factor V Nara (FVa^Nara, W1920R) (from UniProt P12259 29-737; P12259 1574-2224) (natural protein)”, the FVa inactivation assay (remaining FVa activity by prothrombinase assay): protein S needed for inactivation comparable to WT FVa at 3 nmol/L protein S; 0.25 nmol/L APC, 25 μmol/L phospholipids, 10 min (protein S (wild type)) was > 50 nmol/L and the FVa inactivation assay in the presence of protein S: APC (0-0.25 nmol/L) that reduces FVa activity by ~50%; 25 μmol/L phospholipids, 10 min (protein S (wild type)) was > 50 pmol/L.

B1: protein S (wild type) (natural protein, UniProt P07225 42-676, looked up)
chain: ANSLLEETKQGNLERECIEELCNKEEAREVFENDPETDYFYPKYLVCLRSFQTGLFTAARQSTNAYPDLRSCVNAIPDQCSPLPCNEDGYMSCKDGKASFTCTCKPGWQGEKCEFDINECKDPSNINGGCSQICDNTPGSYHCSCKNGFVMLSNKKDCKDVDECSLKPSICGTAVCKNIPGDFECECPEGYRYNLKSKSCEDIDECSENMCAQLCVNYPGGYTCYCDGKKGFKLAQDQKSCEVVSVCLPLNLDTKYELLYLAEQFAGVVLYLKFRLPEISRFSAEFDFRTYDSEGVILYAESIDHSAWLLIALRGGKIEVQLKNEHTSKITTGGDVINNGLWNMVSVEELEHSISIKIAKEAVMDINKPGPLFKPENGLLETKVYFAGFPRKVESELIKPINPRLDGCIRSWNLMKQGASGIKEIIQEKQNKHCLVTVEKGSYYPGSGIAQFHIDYNNVSSAEGWHVNVTLNIRPSTGTGVMLALVSGNNTVPFAVSLVDSTSEKSQDILLSVENTVIYRIQALSLCSDQQSHLEFRVNRNNLELSTPLKIETISHEDLQRQLAVLDKAMKAKVATYLGGLPDVPFSATPVNAFYNGCMEVNINGVQLDLDEAISKHNDIRAHSCPSVWKKTKNS
modifications: gamma-carboxyglutamate at 36 (printed as Gla36)
notes: protein S, wild type; also called WT protein S; PS; source: HEK293 cells, stably transfected, purified (barium citrate precipitation, anion exchange chromatography)
B1: binds [1]; binds [2].
